B1: 27D10 (antibody, V domains shown)
VH: QLQLQESGPGLVKPSETLSLTCTVSGGSISSRSDYWGWIRQPPGKGLEWIGTIYYSGSTFYNPSLKSRVTISVDTSKNQFSLKLSSVTAADTAVYYCARQQLVLYYFDYWGQGTLVTVSS
VL: not shown
notes: Fully human monoclonal antibody from a XenoMouse hybridoma (IgG2 or IgG4 strain), purified
B2: 27A3 (antibody, V domains shown)
VH: QLQLQESGPGLVKPSETLSLTCTVSGGSISSRSDYWGWIRQPPGKGLEWIGTIYYSGDTYYNPSLKSRVTISVDTSKNQFSLKLSSVTAADTAVYYCARQQLVLYYFDYWGQGTLVTVSS
VL: EIVLTQSPGTLSLSPGERATLSCRASQSVSSSYLAWYQQKPGQAPRLLIYATSNRATGIPDRFSGSGSGTDFTLTISRLEPEDFAVYYCQQHGSSPPLTFGGGTKVEIK
notes: as for B1
B3: 21H6 (antibody, V domains shown)
VH: QVQLVESGGGLVKPGGSLRLSCAASGFTFSDYYMSWIRQAPGKGLEWVSYISNSGITIYYADSVKGRFTISRDNAKNSLYLQMNSLRAGDTAVYYCAREEWYSSRWYRNFDYWGQGTLVTVSS
VL: DIQMTQFSSSLSASVGDRVTITCRASQSISRYLNWYQQKPGKAPKLLIYAASSLQSGVPSRFNGSGSGTDFTLTISSLQPEDFATYYCQQSYSAPLTFGGGTKVEIK
notes: Fully human monoclonal antibody from a XenoMouse hybridoma, purified

Columns and labels:
[1] = target: T1, soluble KDR Ig4-7 domain (human, UniProt P35968 328-764); test: ELISA, KDR Ig4-7 coat (1:1 diln.), antibody 0.1 ug/mL
T1 construct: domain: Ig4-7 domain; also called b-KDRIg4-7-myc-his; Ig4-7 domain of KDR; not shown: myc-his tag of the pSecTag construct
T1 sequence (P35968 328-764): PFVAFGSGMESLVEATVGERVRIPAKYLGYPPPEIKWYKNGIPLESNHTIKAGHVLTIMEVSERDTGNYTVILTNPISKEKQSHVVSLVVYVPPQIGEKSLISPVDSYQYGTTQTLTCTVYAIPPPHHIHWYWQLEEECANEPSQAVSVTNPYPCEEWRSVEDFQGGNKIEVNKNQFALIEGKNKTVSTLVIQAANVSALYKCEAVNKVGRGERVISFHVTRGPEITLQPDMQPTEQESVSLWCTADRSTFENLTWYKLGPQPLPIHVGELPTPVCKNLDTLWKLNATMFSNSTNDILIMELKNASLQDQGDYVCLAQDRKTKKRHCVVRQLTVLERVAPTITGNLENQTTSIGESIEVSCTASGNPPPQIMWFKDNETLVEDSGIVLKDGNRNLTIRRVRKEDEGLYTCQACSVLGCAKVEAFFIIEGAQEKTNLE
Procedure: (§1) The cross-reactivity of purified antibodies was tested against KDR mouse ortholog KDR mouse ortholog (mouse VEGFR2, or Flk-1) and human VEGFR1 (Flt-1). The ability of the antibodies to bind soluble KDR Ig4-7 domain and to the entire KDR extracellular domain (ECD) was also measured.
(§2) Cross-reactivity experiments were carried out and measured using an ELISA based assay as described in Example 6. […] Antibody controls included IgG1 and IgG4 (Sigma-Aldrich, Cat. #15154 and #14639, respectively).

[2] = target: T2, whole KDR-ECD (Cat. # 676490, Calbiochem) (human, UniProt P35968 20-764); test: ELISA, KDR-ECD coat 5 ug/mL, antibody 0.01 ug/mL
T2 construct: extracellular domain; Bought soluble protein; also called soluble KDR; VEGF Receptor 2 D1-7
T2 sequence (P35968 20-764): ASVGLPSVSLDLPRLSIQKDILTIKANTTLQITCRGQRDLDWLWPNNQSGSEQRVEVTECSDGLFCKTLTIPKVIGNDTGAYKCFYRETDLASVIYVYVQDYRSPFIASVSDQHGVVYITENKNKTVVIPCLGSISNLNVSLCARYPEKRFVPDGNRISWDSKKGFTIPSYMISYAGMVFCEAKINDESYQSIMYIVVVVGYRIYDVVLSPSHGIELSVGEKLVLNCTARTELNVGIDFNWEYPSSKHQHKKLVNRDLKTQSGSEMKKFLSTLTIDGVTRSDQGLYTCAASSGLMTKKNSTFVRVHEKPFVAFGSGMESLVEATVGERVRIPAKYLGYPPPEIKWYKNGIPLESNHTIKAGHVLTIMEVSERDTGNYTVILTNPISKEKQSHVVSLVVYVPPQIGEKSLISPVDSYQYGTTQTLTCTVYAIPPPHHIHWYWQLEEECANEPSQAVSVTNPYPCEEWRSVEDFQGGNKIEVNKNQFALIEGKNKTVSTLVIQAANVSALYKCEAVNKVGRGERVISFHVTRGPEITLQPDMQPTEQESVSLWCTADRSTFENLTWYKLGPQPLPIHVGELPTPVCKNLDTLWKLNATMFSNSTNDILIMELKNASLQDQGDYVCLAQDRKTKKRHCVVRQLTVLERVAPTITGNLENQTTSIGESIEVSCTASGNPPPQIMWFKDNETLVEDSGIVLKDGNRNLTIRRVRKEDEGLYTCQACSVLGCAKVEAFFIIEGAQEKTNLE
Procedure: as §1, §2

[3] = target: T1, soluble KDR Ig4-7 domain; test: ELISA, KDR Ig4-7 coat (1:1 diln.), antibody 0.01 ug/mL
Procedure: as §1, §2

[4] = target: T2, whole KDR-ECD (Cat. # 676490, …); test: ELISA, KDR-ECD coat 5 ug/mL, antibody 0.1 ug/mL
Procedure: as §1, §2

[5] = target: T2, whole KDR-ECD (Cat. # 676490, …); test: ELISA, KDR-ECD coat 5 ug/mL, antibody 1 ug/mL
Procedure: as §1, §2

[6] = target: T3, human KDR (human, UniProt P35968 20-1356); test: FACS competition on 293T/human KDR transfectants; antibody 5 ug/mL first, then competitor VEGF165 50 ng/mL; inhibition of VEGF binding
T3 construct: whole, on cells; also called VEGFR2; endogenously-expressed KDR in HUVEC cells
T3 sequence (P35968 20-1356): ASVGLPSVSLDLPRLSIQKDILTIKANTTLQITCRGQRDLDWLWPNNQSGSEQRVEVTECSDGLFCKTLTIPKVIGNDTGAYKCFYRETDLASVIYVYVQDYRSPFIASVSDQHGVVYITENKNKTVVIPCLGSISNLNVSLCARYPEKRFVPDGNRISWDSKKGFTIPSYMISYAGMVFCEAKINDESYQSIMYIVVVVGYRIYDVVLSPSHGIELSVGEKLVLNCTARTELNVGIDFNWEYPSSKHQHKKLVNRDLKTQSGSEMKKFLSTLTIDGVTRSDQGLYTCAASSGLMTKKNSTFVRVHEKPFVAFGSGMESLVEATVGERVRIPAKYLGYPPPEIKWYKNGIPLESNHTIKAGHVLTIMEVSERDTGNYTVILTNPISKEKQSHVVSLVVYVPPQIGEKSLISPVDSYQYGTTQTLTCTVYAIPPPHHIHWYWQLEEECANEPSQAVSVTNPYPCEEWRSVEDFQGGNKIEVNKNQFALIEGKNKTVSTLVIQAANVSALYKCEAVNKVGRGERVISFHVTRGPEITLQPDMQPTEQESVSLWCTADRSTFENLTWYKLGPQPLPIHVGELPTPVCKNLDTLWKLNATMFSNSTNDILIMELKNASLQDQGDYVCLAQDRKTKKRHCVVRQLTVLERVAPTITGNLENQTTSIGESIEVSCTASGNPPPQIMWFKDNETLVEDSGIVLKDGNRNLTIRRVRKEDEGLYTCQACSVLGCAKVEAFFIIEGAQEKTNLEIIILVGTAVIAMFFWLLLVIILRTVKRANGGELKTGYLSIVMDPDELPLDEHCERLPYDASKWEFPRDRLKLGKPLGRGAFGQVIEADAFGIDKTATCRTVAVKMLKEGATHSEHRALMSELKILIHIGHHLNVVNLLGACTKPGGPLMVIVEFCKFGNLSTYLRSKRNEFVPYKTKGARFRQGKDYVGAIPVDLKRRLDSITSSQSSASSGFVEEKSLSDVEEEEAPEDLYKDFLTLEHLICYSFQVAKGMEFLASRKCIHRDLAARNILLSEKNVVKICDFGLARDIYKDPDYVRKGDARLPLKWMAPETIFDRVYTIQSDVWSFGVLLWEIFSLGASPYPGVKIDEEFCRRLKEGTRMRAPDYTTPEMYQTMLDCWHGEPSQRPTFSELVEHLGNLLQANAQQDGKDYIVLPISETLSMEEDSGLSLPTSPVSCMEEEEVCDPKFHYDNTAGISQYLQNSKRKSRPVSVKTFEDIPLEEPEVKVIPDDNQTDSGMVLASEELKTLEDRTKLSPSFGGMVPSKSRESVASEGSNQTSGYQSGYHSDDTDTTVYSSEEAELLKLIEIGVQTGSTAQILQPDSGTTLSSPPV
Procedure: (§3) Transfected cells were then seeded at 50,000 cells/well and incubated with 5 μg/mL of candidate antibody for one hour at 4° C. […] After washing, the cells were incubated with Cy5-conjugated rabbit anti-goat antibody plus 7AAD for 15 minutes at 4° C.

[7] = target: T4, mouse KDR (Flk-1)/Fc (Cat. #443-KD/CF, R&D Systems, Inc.) (mouse, UniProt P35918 20-762); test: ELISA, Flk-1 coat 5 ug/mL, antibody 1 ug/mL
T4 construct: Bought reagent; also called mouse VEGFR2; KDR mouse ortholog; not shown: Fc of the bought fusion protein
T4 sequence (P35918 20-762 limits assumed): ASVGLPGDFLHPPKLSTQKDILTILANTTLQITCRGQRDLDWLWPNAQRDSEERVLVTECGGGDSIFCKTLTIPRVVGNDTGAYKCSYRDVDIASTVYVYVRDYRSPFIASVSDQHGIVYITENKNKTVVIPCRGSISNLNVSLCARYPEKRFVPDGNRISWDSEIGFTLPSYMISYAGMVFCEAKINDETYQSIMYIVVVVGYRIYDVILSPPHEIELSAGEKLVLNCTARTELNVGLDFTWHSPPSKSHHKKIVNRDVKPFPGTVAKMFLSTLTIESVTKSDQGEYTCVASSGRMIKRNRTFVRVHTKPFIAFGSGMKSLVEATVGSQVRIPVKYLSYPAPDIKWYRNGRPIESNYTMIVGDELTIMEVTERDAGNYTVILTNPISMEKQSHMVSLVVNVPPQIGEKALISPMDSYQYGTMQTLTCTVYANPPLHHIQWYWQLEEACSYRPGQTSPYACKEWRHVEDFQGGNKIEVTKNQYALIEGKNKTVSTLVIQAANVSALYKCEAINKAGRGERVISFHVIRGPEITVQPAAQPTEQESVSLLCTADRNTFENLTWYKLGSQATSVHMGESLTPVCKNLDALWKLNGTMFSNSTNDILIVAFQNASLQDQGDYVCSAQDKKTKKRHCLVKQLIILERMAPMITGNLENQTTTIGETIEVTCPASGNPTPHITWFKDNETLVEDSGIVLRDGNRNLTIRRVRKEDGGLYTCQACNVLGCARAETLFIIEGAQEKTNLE
Procedure: as §1, §2

[8] = target: T3, human KDR; test: cell-based or functional assay
[9] = target: T3, human KDR; test: FACS competition on 293T/human KDR transfectants; antibody 5 ug/mL first, then competitor VEGF165 50 ng/mL; bound VEGF165 detected
Procedure: as §3

[10] = target: T4, mouse KDR (Flk-1)/Fc (Cat. #443-KD/CF, …); test: ELISA, Flk-1 coat 5 ug/mL, antibody 0.1 ug/mL
Procedure: as §1, §2

[11] = target: T3, human KDR; test: FACS titration of purified antibody on HUVEC cells (FACS Kd)
Procedure: The binding affinities of the purified antibodies for endogenously-expressed KDR in HUVEC cells was measured. HUVEC cells were seeded at 150,000 cells/well and incubated with titrations of purified antibody for 4 hours at 4° C. The cells were then washed and incubated with goat anti-human IgG-Fc-Cy5+5 μg/mL 7-Amino-Actinomycin (7AAD) for 30 minutes at 4° C. Bound KDR was detected using FACS analysis.

[12] = target: T4, mouse KDR (Flk-1)/Fc (Cat. #443-KD/CF, …); test: ELISA, Flk-1 coat 5 ug/mL, antibody 0.01 ug/mL
Procedure: as §1, §2

[13] = target: T3, human KDR; test: cell-based or functional assay; remark: listed apart in the source
[14] = target: T1, soluble KDR Ig4-7 domain; test: ELISA, KDR Ig4-7 coat (1:1 diln.), antibody 1 ug/mL
Procedure: as §1, §2

[15] = target: T5, cynomolgus KDR (cynomolgus monkey, UniProt A0A2K5VE63 20-1356); test: FACS on Cyno KDR/293T transfectants, antibody 5 ug/mL
T5 construct: whole, on cells; also called Cyno KDR
T5 sequence (A0A2K5VE63 entry or part of it): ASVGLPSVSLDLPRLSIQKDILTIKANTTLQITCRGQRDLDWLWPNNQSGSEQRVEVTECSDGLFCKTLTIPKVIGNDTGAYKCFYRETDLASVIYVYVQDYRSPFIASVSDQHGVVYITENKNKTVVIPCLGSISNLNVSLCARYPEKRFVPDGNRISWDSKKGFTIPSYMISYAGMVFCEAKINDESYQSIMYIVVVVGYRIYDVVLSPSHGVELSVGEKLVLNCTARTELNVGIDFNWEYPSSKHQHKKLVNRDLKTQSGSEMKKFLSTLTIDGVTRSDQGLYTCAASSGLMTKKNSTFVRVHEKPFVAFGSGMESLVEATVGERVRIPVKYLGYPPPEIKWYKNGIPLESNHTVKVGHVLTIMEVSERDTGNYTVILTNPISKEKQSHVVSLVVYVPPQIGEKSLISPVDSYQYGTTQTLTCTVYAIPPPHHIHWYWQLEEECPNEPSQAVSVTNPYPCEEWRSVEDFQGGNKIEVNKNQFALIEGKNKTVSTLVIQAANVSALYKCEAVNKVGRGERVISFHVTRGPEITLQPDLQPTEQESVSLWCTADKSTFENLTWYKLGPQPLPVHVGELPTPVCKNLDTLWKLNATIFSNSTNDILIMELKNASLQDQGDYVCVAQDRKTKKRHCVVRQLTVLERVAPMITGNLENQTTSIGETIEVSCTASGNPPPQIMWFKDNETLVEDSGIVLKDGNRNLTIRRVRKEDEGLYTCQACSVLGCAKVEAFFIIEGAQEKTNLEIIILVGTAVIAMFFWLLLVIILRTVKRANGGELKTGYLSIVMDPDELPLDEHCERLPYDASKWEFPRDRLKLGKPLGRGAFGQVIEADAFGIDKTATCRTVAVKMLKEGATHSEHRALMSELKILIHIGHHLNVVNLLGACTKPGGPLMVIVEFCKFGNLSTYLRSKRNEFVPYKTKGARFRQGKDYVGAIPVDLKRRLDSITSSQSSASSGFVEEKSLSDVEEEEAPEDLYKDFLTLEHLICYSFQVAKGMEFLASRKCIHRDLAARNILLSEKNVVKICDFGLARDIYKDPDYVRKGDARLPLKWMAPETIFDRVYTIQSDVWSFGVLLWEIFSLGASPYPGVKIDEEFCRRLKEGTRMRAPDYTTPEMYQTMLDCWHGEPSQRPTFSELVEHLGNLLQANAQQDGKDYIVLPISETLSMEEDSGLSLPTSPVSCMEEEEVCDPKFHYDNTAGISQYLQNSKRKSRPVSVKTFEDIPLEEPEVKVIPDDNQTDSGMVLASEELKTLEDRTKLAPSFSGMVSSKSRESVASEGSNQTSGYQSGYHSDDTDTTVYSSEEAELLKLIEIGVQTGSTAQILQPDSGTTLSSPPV
Procedure: The binding of purified antibodies to cell-bound cynomolgus KDR (with parental cells as negative control) was tested by FACS analysis in this assay.
Cynomolgus KDR was cloned in 3 pieces. One piece was PCR amplified from cynomolgus lung cDNA, and the remaining two pieces were PCR amplified from cynomolgus kidney cDNA. The three PCR products were inserted into pCR3.1 Bid vector. […] Transfected cells were seeded at 50,000 cells/well and incubated with 5 μg/mL of candidate antibody for one hour at 4° C. The cells were then washed and incubated with secondary antibody (Cy5-conjugated goat anti-human antibody, or Cy5-conjugated rabbit anti-goat antibody, plus 7-Amino-Actinomycin (7AAD)) for 15 minutes at 4° C. Binding between cynomolgus KDR and purified antibody was detected by FACS analysis.

[16] = target: T3, human KDR; test: cell-based or functional assay; remark: listed apart in the source

Row | Binder | ELISA reading [1] | ELISA reading [2] | ELISA reading [3] | ELISA reading [4] | ELISA reading [5] | % Inhibition [6] [%] | HUVEC survival, Maximum Inhibition at 50 nM (% Inhibition), Average [8] [%] | HUVEC survival, Maximum Inhibition at 50 nM (% Inhibition), N = 1 [8] [%] | HUVEC survival, Maximum Inhibition at 50 nM (% Inhibition), N = 2 [8] [%] | FACS Geometric Mean Fluorescence (bound VEGF165) [9] | Kd [11] [nM] | KDR tyrosine phosphorylation in HUVEC, EC50 (nM), Average [13] [nM] | KDR tyrosine phosphorylation in HUVEC, EC50 (nM), N = 1 [13] [nM] | KDR tyrosine phosphorylation in HUVEC, EC50 (nM), N = 2 [13] [nM] | KDR tyrosine phosphorylation in HUVEC, Maximum Inhibition at 100 nM (% Inhibition), Average [13] [%] | KDR tyrosine phosphorylation in HUVEC, Maximum Inhibition at 100 nM (% Inhibition), N = 1 [13] [%] | KDR tyrosine phosphorylation in HUVEC, Maximum Inhibition at 100 nM (% Inhibition), N = 2 [13] [%] | ELISA reading [14] | FACS Geometric Mean Fluorescence [15] | 6-keto Prostaglandin F1α release, EC50 (nM), Average [16] [nM] | also measured
1 | B1 | 0.086 | 0.087 | 0.073 | 0.187 | 1.36 | 15 | 89 | 93 | 85 | 111 | 1.9 | 1.9 | 1.6 | 2.3 | 72 | 70 | 75 | 0.076 | 89.4 | – | ELISA reading [7]: 2.14; ELISA reading [10]: 1.48; ELISA reading [12]: 0.537
2 | B2 | 0.075 | 0.093 | 0.08 | 0.111 | 1.97 | 9 | 95 | 95 | 94 | 118 | 5.4 | 3.1 | 3.4 | 2.9 | 78 | 77 | 79 | 0.078 | 89.7 | 5.6 | 6-keto Prostaglandin F1α release, EC50 (nM), N = 1 [16]: 5.5 nM; 6-keto Prostaglandin F1α release, EC50 (nM), N = 2 [16]: 5.7 nM; 6-keto Prostaglandin F1α release, Maximum Inhibition (% Inhibition), Average [16]: 49%; 6-keto Prostaglandin F1α release, Maximum Inhibition (% Inhibition), N = 1 (200 nM) [16]: 49%; 6-keto Prostaglandin F1α release, Maximum Inhibition (% Inhibition), N = 2 (333 nM) [16]: 49%
3 | B3 | 0.074 | 0.087 | 0.074 | 0.139 | 1.46 | -3 | 96 | 96 | 96 | 133 | 17.9 | 6.9 | 7.1 | 6.7 | 82 | 81 | 84 | 0.087 | 102 | 6.3 | 6-keto Prostaglandin F1α release, EC50 (nM), N = 1 [16]: 7.3 nM; 6-keto Prostaglandin F1α release, EC50 (nM), N = 2 [16]: 5.4 nM; 6-keto Prostaglandin F1α release, Maximum Inhibition (% Inhibition), Average [16]: 77%; 6-keto Prostaglandin F1α release, Maximum Inhibition (% Inhibition), N = 1 (200 nM) [16]: 80%; 6-keto Prostaglandin F1α release, Maximum Inhibition (% Inhibition), N = 2 (333 nM) [16]: 75%

Source: patent US20100260765A1 (AstraZeneca / MedImmune, published 2010)
